How the values were obtained:
[1] = system: primary cortical neurons (PCNs); experiment: Aβ neurotoxicity in primary cortical neurons, WST-8 / Calcein / LDH; type: cell-based, mouse; settings: for effect on the HN effect: 10 nM HNG
Procedure: B) PCNs were incubated with 25 μM Aβ (upper) in the presence of 10 μg of recombinant soluble human gp130 (lower “+”) or BSA (lower “−”). Cell viability was determined by WST-8 assay (upper) or Calcein fluorescence assay (lower) at 72 hr after the onset of treatment with Aβ.
C) PCNs were incubated with 25 μM Aβ (1-43) in the presence of 1 μg of neutralizing anti-mouse gp130 antibody (RX435) or control IgG. Cell viability and cell mortality were determined by Calcein fluorescence (left panel) and LDH assays (right panel), respectively, at 72 hr after the onset of treatment with Aβ (1-43).
[…] At 72 hr after incubation, the cells were harvested for WST-8 assays or/and Calcein fluorescence assays to show cell viability.
B) The soluble IL-6 receptor-α (sIL-6R) or the soluble CNTF-R (100 ng/ml) were added to the cells as in the above A), followed by the stimulation with its ligand, IL-6 or CNTF (100 ng/ml), respectively to show the effects on the neuronal cell death due to Aβ. The right and left graphs show the cell viabilities determined by WST-8 assays and Calcein fluorescence assays, respectively.
C) The neutralizing antibodies (1 μg) for the mouse gp130, mouse LIFR, mouse IL-11R and rat CNTF-R were added as in the above A), and cell viability was determined by Calcein fluorescence assays after 72 hours.
WST-8 assay was performed at 72 hrs after the treatment.
The primary culture of mouse cortical neurons was prepared as described previously (Sudo et al., 2000). Briefly, primary cortical neurons, obtained from embryonic day 14 (E14) ICR mice were seeded in poly-L-lysine-coated 96 well plates (Sumitomo Bakelite) at 2.5 or 5.0×10^4 cells/well in Neuron Medium (Sumitomo Bakelite) (Hashimoto et al., 2003; Niikura et al., 2004). Purity of neurons by this method was >98%. After 3 days, the culture medium was replaced with DMEM with N2 supplement. On the fourth day in vitro, 25 μM of Aβ (1-42) was added in association with indicated concentrations of HN or cytokines in the presence or the absence of soluble cytokine receptors or neutralizing antibodies. At 72 hrs after the onset of treatment, cell viability was assessed by WST-8 assay and/or Calcein fluorescence assay and cell mortality was assessed by the Trypan blue exclusion assay and LDH assay (Hashimoto et al, 2000, 2001 a b, 2003).

STAT3 = experiment: Immunoblot of phosphotyrosine 705 of STAT3 in F11 cells; type: cell-based; settings: F11 cells, 15 min
Procedure: E) F11 cells were transfected with an indicated amount of pRNA-U6.1/Shuttle vector (empty), pRNA-U6.1/Shuttle-IL-6R siRNA, or pRNA-U6.1/Shuttle-LIFR siRNA. At 48 hrs after transfection, the cells were treated with 100 ng/ml IL-6, 100 ng/ml CNTF or 1 μM HNG at 37° for 15 min, and harvested. The results of immunoblot analysis using anti-phophoSTAT3 ([…]) antibody and anti-STAT3 antibody were shown in photos. A) F11 cells were added with an indicated amount of HN, HNG or HNA and harvested 15 min later for immunoblot analysis with antibodies recognizing phosphotyrosine 705 of STAT3 or STAT3. The results are shown in photos. B) F11 cells were transfected with 0.5 μg of pRNA-U1.6/Shuttle vector, pRNA-U6.1/Shuttle-WSX-1 siRNA, pRNA-U6.1/Shuttle-CNTF-R siRNA, both pRNA-U6.1/Shuttle-WSX-1 siRNA and pRNA-U6.1/Shuttle-CNTF-R siRNA (0.5 μg each), or pRNA-U6.1/Shuttle-FPR2 siRNA. The total amount of vectors was adjusted to be 1.0 μg by including a backbone vector. […] The results are shown in photos. Cell lysates (10-20 μg/lane) or pulled-down precipitates were subject to SDS-PAGE, and the proteins separated on the gel were transferred onto polyvinylidene difluoride membranes as described (Hashimoto et al, 2000). Visualization of the immunoreactive protein bands was performed by ECL (Amersham Pharmacia Biotech, Uppsala, Sweden).

[2] = target: T1, Humanin receptor (HNR) overexpressed in F11 cells: human CNTF-R/WSX-1/gp130 (human, UniProt P26992 23-342; Q6UWB1 33-636; P40189 23-918); experiment: cold competitor in binding assay (2), F11 cells transfected with human CNTF-R/WSX-1/gp130
T1 construct: whole, on cells; The three human subunits co-transfected into F11 cells, which also carry the endogenous receptor; also called both the CNTF receptor and WSX-1; not shown: C-terminal V5 tag; C-terminal myc-His tag
Procedure: A) F11 cells were seeded on 96-well plates coated with poly-L-lysine (7 ×10^3 cells/well). […] On the other hand, F11 cells were transfected with 0.5 μg of pcDNA3.1/GS-human CNTF-R, pEF1/MycHis-human WSX-1, and 1.0 μg of pCAG-human gp130. At 24 hrs after the transfection, the cells were re-seeded on 96-well plates coated with poly-L-lysine (7 ×10^3 cells/well).
(§1) F11 cells (7×10^4/well in 6-well plates) were replated into 96-well plates (7×10^3 cells/well) at 24 hrs after transfection with indicated amounts of the plasmids encoding mycHis-WSX or V5-CNTF-R, and with PCAG-human gp130 if required. […] After 6 hrs incubation, they were fixed with 4% paraformaldehyde in PBS for 30 min. After washing with PBS, cells were stained with FITC-conjugated avidin (Molecularprobe, Eugene, Oreg., USA). Immunofluorescence intensity was measured (excitation=485 nm, emission=535 nm) with a spectrofluorometer (Wallac1420 ARVOsx Multi Label Counter). Immunohistochemical analysis was done with a laser-scanning, confocal microscope LSM (Carl Zeiss, Germany).

[3] = target: T2, C-terminally myc-tagged human WSX-1 (mycHis-WSX-1) (human, UniProt Q6UWB1 33-636); experiment: cold competitor (10 µM) in binding assay (1), F11 cells expressing human WSX-1 and gp130
T2 construct: whole, on cells; in the pull-down and co-immunoprecipitation it stood in cell lysates; also called myc-WSX-1; IL-27 receptor; not shown: C-terminal myc-His tag of the pEF-mycHis vector
T2 sequence (looked up): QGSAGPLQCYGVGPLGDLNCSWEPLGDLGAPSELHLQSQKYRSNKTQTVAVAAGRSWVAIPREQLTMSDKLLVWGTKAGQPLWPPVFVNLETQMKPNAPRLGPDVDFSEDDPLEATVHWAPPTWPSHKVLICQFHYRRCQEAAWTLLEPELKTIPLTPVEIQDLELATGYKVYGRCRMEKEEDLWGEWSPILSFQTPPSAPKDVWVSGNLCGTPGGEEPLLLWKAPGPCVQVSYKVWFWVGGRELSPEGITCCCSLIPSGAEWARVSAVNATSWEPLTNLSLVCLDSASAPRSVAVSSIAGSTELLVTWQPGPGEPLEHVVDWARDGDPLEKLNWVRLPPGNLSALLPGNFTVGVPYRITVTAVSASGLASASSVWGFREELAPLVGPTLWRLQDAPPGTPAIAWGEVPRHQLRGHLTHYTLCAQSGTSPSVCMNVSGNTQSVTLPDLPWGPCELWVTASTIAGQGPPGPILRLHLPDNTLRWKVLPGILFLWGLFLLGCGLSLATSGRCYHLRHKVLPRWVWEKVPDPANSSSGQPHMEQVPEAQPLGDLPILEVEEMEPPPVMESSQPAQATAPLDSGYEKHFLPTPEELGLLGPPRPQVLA
Procedure: B) F11 cells were transfected with 0.5 µg of pEF-myc His human CREME9 or pEF-mycHis human WSX-1 in association with 0.5 µg of pCAG-human gp130. […] Fluorescence signals were detected with a laser-scanning, confocal microscope LSM (Carl Zeiss, Germany) (right panels).
as §1

F11 cells = experiment: Neuronal cell death of F11 cells induced by overexpression of FAD genes (V642I-APP, M146L-PS1), WST-8 / Trypan blue; type: cell-based
Procedure: D) F11 cells were transfected with 0.5 μg of the pcDNA3 vector or pcDNA3-V642I-APP in association with 0.5 μg of the pEFBos vector or pEFBos-wild-type human gp130 (gp130wt). At 24 hr after transfection, the cells were added with 1 μg of neutralizing anti-mouse gp130 antibody. Cell mortality (left panel) and cell viability (right panel) were determined by Trypan blue exclusion assay and WST-8 assay at 72 hr after transfection. Below are shown the results of the expression of V642I-APP, and human gp130wt, which were confirmed by immunoblot analysis (photos).
B) F11 cells were transfected with 0.5 μg of the pcDNA3 vector or pcDNA3-V642I-APP in association with pRNA-U6.1/Shuttle vector (NO), pRNA-U6.1/Shuttle-siWSX-1 (W), pRNA-U6.1/Shuttle-siCNTF-R (C), or pRNA-U6.1/Shuttle-siFPR-2 (F) (Hashimoto et al. 2005). At 24 hrs after transfection, the cells were added with or without 10 nM of HNG. At 72 hrs after transfection, the cells were harvested for WST-8 assays. […]
F11 cells were transfected with pcDNA3 vector or pcDNA3-V642I-APP. […] The expression of V642I-APP determined by immunoblot analysis was shown below in a photo. […]
The transfection procedures were as described (Hashimoto et al, 2000, 2001a, 2003). […] Transfection efficiency in these protocols has been determined to be invariably around 70%. […]

T1 sequence (P26992 23-342, chain 1 of 2): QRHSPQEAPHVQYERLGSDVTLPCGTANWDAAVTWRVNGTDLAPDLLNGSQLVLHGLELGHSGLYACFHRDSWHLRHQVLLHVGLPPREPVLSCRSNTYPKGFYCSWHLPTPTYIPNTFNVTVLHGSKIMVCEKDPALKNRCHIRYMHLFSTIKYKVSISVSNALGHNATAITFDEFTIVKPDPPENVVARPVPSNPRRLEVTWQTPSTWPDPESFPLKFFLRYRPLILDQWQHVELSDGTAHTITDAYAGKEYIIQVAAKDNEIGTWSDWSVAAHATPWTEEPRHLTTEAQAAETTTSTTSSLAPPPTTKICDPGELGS
T1 sequence (P40189 23-918, chain 3 of 2): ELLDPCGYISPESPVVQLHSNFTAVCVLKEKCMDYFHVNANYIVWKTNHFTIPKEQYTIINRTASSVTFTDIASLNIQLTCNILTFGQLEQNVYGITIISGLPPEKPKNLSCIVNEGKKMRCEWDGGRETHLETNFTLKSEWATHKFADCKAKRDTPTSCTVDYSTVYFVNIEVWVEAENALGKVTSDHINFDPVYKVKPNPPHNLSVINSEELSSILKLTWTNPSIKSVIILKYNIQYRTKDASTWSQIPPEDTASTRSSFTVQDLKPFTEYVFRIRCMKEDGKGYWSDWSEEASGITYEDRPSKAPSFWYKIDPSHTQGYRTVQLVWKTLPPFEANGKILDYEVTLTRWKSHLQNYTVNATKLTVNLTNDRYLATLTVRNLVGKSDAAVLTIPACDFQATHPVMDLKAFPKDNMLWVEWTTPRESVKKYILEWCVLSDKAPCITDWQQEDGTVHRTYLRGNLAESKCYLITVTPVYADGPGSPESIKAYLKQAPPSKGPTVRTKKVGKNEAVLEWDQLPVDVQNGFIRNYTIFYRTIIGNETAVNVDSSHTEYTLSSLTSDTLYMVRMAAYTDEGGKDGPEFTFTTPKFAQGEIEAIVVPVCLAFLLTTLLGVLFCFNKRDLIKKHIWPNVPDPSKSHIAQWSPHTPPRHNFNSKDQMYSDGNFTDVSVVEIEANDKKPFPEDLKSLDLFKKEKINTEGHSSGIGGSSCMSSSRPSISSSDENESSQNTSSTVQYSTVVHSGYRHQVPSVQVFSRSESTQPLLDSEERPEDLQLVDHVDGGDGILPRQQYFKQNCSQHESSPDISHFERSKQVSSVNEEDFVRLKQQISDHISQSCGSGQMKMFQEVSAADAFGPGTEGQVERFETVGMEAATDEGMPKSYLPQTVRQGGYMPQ

Row | Molecule | effect on the HN effect ([1]; PCN, 10 μM Aβ (1-43)) | mimicry of HN in neuroprotection against neuronal cell death by Aβ ([1]; cytokine 100 ng/ml with its soluble receptor (sIL-6R or soluble CNTF receptor) 100 ng/ml) | inhibition of neurotoxicity by Aβ ([1]; cytokine alone, physiological levels (up to 100 ng/ml), 25 μM Aβ) | phosphorylation of tyrosine 705 of STAT3 (STAT3) | binding result [2] | binding result [3] | concentration range showing HN-like effect (activity) (F11 cells; WST-8) [µM] | concentration range suppressing the HN effect (F11 cells; given with HNG) [nM] | HN-like effect ([1]; PCN, higher concentration range, 10 μM Aβ (1-43))
1 | CNTF: ciliary neurotrophic factor, recombinant cytokine (protein, UniProt P26441 1-200, looked up) Ciliary neurotrophic factor: MAFTEHSPLTPHRRDLCSRSIWLARKIRSDLTALTESYVKHQGLNKNINLDSADGMPVASTDQWSELTEAERLQENLQAYRTFHVLLARLLEDQQVHFTPTEGDFHQAIHTLLLQVAAFAYQIEELMILLEYKIPRNEADGMPINVGDGGLFEKKLWGLKVLQELSQWTVRSIHDLRFISSHQTGIPARGSHYIANNKKM | inhibited the HN effect | did not mimic HN | did not inhibit | increased |  |  |  |  | 
2 | MAPRGFSCLLLLTGEIDLPVKRRA (also called S14G-HN) [S14G-Humanin (HNG)] |  |  |  |  | binds | binds |  |  | 
3 | IL-27: IL-27 (IL-27p28/EBV-induced gene 3), IL-6/IL-12 family cytokine binding to WSX-1/gp130 (protein) chain 1: FPRPPGRPQLSLQELRREFTVSLHLARKLLSEVRGQAHRFAESHLPGVNLYLLPLGEQLPDVSLTFQAWRRLSDPERLCFISTTLQPFHALLGGLGTQGRWTNMERMQLWAMRLDLRDLQRHLRFQVLAAGFNLPEEEEEEEEEEEEERKGLLPGALGSALQGPAQVSWPQLLSTYRLLHSLELVLSRAVRELLLLSKAGHSVWPLGFPTLSPQP chain 2: RKGPPAALTLPRVQCRASRYPIAVDCSWTLPPAPNSTSPVSFIATYRLGMAARGHSWPCLQQTPTSTSCTITDVQLFSMAPYVLNVTAVHPWGSSSSFVPFITEHIIKPDPPEGVRLSPLAERQLQVQWEPPGSWPFPEIFSLKYWIRYKRQGAARFHRVGPIEATSFILRAVRPRARYYVQVAAQDLTDYGELSDWSLPATATMSLGK | suppressed the HN effect |  |  | increased |  |  | 1 to 10 | ≤ 100 | had the HN-like effect
